In data set [1] the test system is HeLa Kyoto. The data set is described as follows: solubility in G1/S (NP-40 vs SDS abundance) (log2 ratio); higher = more soluble. The settings on record: cell cycle stage: G1/S.
In data set [2] the test system is HeLa Kyoto. The data set is described as follows: thermal stability score vs G1/S (z-score of summed log2 fold changes over temperatures); higher = more thermally stable than in G1/S.
Data set [3] has as its system HeLa Kyoto. The data set is described as follows: solubility change mitosis vs G1/S (difference of NP-40 vs SDS log2 ratios) (log2 ratio difference); higher = more soluble in mitosis.
Data set [4] has as its system HeLa Kyoto. Kind of data set: melting temperature (median over replicates), in situ; higher = more thermally stable.
Where [5] appears, read: cell cycle stage: early G1 (4.5 h after nocodazole release).

The source of these data is the supplement of paper PMC5998384.
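For melting temperature (median over replicates), in situ in this document: HeLa Kyoto cells synchronized by double thymidine or nocodazole block, proteins quantified by TMT10plex mass spectrometry, three independent biological replicates.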
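For solubility change mitosis vs G1/S (difference of NP-40 vs SDS log2 ratios) in this document: synchronized HeLa Kyoto cells (double thymidine block for G1/S, nocodazole release for mitosis), protein amounts in NP-40 versus SDS lysates quantified by mass spectrometry, three biological replicates.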
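For solubility in G1/S (NP-40 vs SDS abundance) in this document: HeLa Kyoto cells arrested at G1/S by double thymidine block, proteins quantified by TMT10plex mass spectrometry in mild NP-40 versus SDS extracts, three biological replicates.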
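For thermal stability score vs G1/S (z-score of summed log2 fold changes over temperatures) in this document: synchronized HeLa Kyoto cells, proteins quantified by TMT10plex mass spectrometry, three biological replicates, mitosis taken 0.5 h after nocodazole release, G1/S directly after double thymidine block.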

Chain of PRRC2B (chain, as listed by the source): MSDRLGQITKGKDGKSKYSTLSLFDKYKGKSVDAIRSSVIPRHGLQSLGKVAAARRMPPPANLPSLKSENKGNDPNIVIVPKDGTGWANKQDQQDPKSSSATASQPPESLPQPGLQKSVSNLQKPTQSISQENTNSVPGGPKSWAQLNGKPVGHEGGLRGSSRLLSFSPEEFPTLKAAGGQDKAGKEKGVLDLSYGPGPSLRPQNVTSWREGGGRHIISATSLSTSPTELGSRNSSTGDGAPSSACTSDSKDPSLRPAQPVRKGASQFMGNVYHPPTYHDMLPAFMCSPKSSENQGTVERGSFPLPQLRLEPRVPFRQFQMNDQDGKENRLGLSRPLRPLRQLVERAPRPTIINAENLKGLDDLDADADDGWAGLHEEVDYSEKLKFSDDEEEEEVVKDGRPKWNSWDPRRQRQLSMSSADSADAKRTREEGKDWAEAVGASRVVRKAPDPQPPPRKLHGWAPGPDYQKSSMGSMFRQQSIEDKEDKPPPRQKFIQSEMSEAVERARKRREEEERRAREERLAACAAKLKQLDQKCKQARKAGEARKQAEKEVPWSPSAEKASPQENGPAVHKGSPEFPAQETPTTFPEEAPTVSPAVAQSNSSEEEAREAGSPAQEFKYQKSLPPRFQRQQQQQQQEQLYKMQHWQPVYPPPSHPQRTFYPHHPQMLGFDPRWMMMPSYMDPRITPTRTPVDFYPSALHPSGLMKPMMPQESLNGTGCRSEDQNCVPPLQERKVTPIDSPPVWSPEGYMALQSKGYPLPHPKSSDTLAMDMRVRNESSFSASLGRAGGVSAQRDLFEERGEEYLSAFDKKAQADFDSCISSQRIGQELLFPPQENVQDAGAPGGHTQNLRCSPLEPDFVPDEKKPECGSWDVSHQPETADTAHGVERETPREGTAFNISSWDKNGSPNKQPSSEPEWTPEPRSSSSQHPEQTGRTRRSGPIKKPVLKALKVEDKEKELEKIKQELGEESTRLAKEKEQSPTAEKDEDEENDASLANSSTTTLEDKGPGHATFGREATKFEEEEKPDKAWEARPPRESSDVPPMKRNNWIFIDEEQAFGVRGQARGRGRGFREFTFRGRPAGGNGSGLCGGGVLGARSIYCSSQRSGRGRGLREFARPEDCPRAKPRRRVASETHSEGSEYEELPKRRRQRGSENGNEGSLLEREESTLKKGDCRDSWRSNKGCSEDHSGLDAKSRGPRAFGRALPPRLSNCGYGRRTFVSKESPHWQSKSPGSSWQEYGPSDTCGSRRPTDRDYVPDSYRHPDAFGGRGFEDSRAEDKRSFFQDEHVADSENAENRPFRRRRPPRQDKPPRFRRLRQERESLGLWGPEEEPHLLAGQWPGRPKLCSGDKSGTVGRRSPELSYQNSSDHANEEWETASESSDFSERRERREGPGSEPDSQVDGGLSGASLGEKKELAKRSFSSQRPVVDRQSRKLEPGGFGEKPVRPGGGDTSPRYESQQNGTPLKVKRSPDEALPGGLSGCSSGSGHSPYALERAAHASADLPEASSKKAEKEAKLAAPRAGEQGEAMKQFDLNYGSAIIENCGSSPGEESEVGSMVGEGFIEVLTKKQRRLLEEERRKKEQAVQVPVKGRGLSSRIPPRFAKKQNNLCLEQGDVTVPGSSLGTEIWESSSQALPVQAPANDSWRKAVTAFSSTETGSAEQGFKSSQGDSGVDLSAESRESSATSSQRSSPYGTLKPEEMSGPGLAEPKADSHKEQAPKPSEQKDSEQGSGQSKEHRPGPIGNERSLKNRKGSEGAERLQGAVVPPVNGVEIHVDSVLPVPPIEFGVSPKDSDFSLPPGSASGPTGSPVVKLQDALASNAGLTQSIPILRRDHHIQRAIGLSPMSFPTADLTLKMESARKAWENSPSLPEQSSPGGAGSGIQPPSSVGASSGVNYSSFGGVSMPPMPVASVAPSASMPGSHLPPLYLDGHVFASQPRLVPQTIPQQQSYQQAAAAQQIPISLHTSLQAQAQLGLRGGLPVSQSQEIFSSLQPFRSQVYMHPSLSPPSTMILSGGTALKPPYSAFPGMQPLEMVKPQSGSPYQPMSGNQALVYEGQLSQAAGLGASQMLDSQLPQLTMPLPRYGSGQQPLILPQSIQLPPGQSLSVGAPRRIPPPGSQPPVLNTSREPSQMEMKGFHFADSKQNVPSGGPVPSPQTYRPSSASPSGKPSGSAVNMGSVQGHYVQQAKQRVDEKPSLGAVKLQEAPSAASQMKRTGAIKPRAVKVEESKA

Consider “MAGASVKVAVRVRPFNARETSQDAKCVVSMQGNTTSIINPKQSKDAPKSFTFDYSYWSHTSTEDPQFASQQQVYRDIGEEMLLHAFEGYNVCIFAYGQTGAGKSYTMMGRQEPGQQGIVPQLCEDLFSRVSENQSAQLSYSVEVSYMEIYCERVRDLLNPKSRGSLRVREHPILGPYVQDLSKLAVTSYADIADLMDCGNKARTVAATNMNETSSRSHAVFTIVFTQRCHDQLTGLDSEKVSKISLVDLAGSERADSSGARGMRLKEGANINKSLTTLGKVISALADMQSKKRKSDFIPYRDSVLTWLLKENLGGNSRTAMIAALSPADINYEETLSTLRYADRTKQIRCNAIINEDPNARLIRELQEEVARLRELLMAQGLSASALEGLKTEEGSVRGALPAVSSPPAPVSPSSPTTHNGELEPSFSPNTESQIGPEEAMERLQETEKIIAELNETWEEKLRKTEALRMEREALLAEMGVAVREDGGTVGVFSPKKTPHLVNLNEDPLMSECLLYHIKDGVTRVGQVDMDIKLTGQFIREQHCLFRSIPQPDGEVVVTLEPCEGAETYVNGKLVTEPLVLKSGNRIVMGKNHVFRFNHPEQARLERERGVPPPPGPPSEPVDWNFAQKELLEQQGIDIKLEMEKRLQDLENQYRKEKEEADLLLEQQRLYADSDSGDDSDKRSCEESWRLISSLREQLPPTTVQTIVKRCGLPSSGKRRAPRRVYQIPQRRRLQGKDPRWATMADLKMQAVKEICYEVALADFRHGRAEIEALAALKMRELCRTYGKPDGPGDAWRAVARDVWDTVGEEEGGGAGSGGGSEEGARGAEVEDLRAHIDKLTGILQEVKLQNSSKDRELQALRDRMLRMERVIPLAQDHEDENEEGGEVPWAPPEGSEAAEEAAPSDRMPSARPPSPPLSSWERVSRLMEEDPAFRRGRLRWLKQEQLRLQGLQGSGGRGGGLRRPPARFVPPHDCKLRFPFKSNPQHRESWPGMGSGEAPTPLQPPEEVTPHPATPARRPPSPRRSHHPRRNSLDGGGRSRGAGSAQPEPQHFQPKKHNSYPQPPQPYPAQRPPGPRYPPYTTPPRMRRQRSAPDLKESGAAV [KIF1C]”, for which the “solubility in G1/S (log2)” value in the data set on HeLa Kyoto [1] is -0.0137. Further, the figures for the thermal stability score with HeLa Kyoto [2] (setting [5]) and in the data set on HeLa Kyoto [2] (cell cycle stage: mitosis) were 0.369 and 0.754, respectively. In the data set on HeLa Kyoto [3], the “solubility change mitosis (log2)” value was -0.0384. Also, the melting temperature with HeLa Kyoto [4] (cell cycle stage: G1/S) worked out at 48.5 °C; in the data set on HeLa Kyoto [4] (cell cycle stage: mitosis) it was 50.2 °C.

As to “MQTFLKGKRVGYWLSEKKIKKLNFQAFAELCRKRGMEVVQLNLSRPIEEQGPLDVIIHKLTDVILEADQNDSQSLELVHRFQEYIDAHPETIVLDPLPAIRTLLDRSKSYELIRKIEAYMEDDRICSPPFMELTSLCGDDTMRLLEKNGLTFPFICKTRVAHGTNSHEMAIVFNQEGLNAIQPPCVVQNFINHNAVLYKVFVVGESYTVVQRPSLKNFSAGTSDRESIFFNSHNVSKPESSSVLTELDKIEGVFERPSDEVIRELSRALRQALGVSLFGIDIIINNQTGQHAVIDINAFPGYEGVSEFFTDLLNHIATVLQGQSTAMAATGDVALLRHSKLLAEPAGGLVGERTCSASPGCCGSMMGQDAPWKAEADAGGTAKLPHQRLGCNAGVSPSFQQHCVASLATKASSQ [ITPK1]”, in the data set with HeLa Kyoto [1], the “solubility in G1/S (log2)” value worked out at 0.0668. The thermal stability score in the data set with HeLa Kyoto [2] (setting [5]) is 0.291; in the data set with HeLa Kyoto [2] (cell cycle stage: mitosis), -1.14. Moreover, the “solubility change mitosis (log2)” value in the data set on HeLa Kyoto [3] is -0.011. The melting temperature with HeLa Kyoto [4] (cell cycle stage: G1/S) was 51.9 °C; in the data set on HeLa Kyoto [4] (cell cycle stage: mitosis), 51.3 °C.

For “MERPLCSHLCSCLAMLALLSPLSLAQYDSWPHYPEYFQQPAPEYHQPQAPANVAKIQLRLAGQKRKHSEGRVEVYYDGQWGTVCDDDFSIHAAHVVCRELGYVEAKSWTASSSYGKGEGPIWLDNLHCTGNEATLAACTSNGWGVTDCKHTEDVGVVCSDKRIPGFKFDNSLINQIENLNIQVEDIRIRAILSTYRKRTPVMEGYVEVKEGKTWKQICDKHWTAKNSRVVCGMFGFPGERTYNTKVYKMFASRRKQRYWPFSMDCTGTEAHISSCKLGPQVSLDPMKNVTCENGLPAVVSCVPGQVFSPDGPSRFRKAYKPEQPLVRLRGGAYIGEGRVEVLKNGEWGTVCDDKWDLVSASVVCRELGFGSAKEAVTGSRLGQGIGPIHLNEIQCTGNEKSIIDCKFNAESQGCNHEEDAGVRCNTPAMGLQKKLRLNGGRNPYEGRVEVLVERNGSLVWGMVCGQNWGIVEAMVVCRQLGLGFASNAFQETWYWHGDVNSNKVVMSGVKCSGTELSLAHCRHDGEDVACPQGGVQYGAGVACSETAPDLVLNAEMVQQTTYLEDRPMFMLQCAMEENCLSASAAQTDPTTGYRRLLRFSSQIHNNGQSDFRPKNGRHAWIWHDCHRHYHSMEVFTHYDLLNLNGTKVAEGHKASFCLEDTECEGDIQKNYECANFGDQGITMGCWDMYRHDIDCQWVDITDVPPGDYLFQVVINPNFEVAESDYSNNIMKCRSRYDGHRIWMYNCHIGGSFSEETEKKFEHFSGLLNNQLSPQ [LOXL2]”, the “solubility in G1/S (log2)” value in the data set on HeLa Kyoto [1] is -0.152. For the same substance, the thermal stability score in the data set with HeLa Kyoto [2] (setting [5]) is 2.38; in the data set on HeLa Kyoto [2] (cell cycle stage: mitosis) it was 4.28. Besides, in the data set on HeLa Kyoto [3], the “solubility change mitosis (log2)” value is -0.173. Further, the melting temperature is 54.3 °C in the data set on HeLa Kyoto [4] (cell cycle stage: G1/S) and 54.7 °C with HeLa Kyoto [4] (cell cycle stage: mitosis).

As for PRRC2B, in the data set with HeLa Kyoto [1], the “solubility in G1/S (log2)” value is -0.236. Moreover, the thermal stability score in the data set on HeLa Kyoto [2] (setting [5]) came to 1.22; in the data set on HeLa Kyoto [2] (cell cycle stage: mitosis) it was 3.15. Moreover, the “solubility change mitosis (log2)” value with HeLa Kyoto [3] is 0.078. Further, the melting temperature in the data set with HeLa Kyoto [4] (cell cycle stage: G1/S) turned out to be 51.9 °C; in the data set on HeLa Kyoto [4] (cell cycle stage: mitosis) it was 52.2 °C.
